Assay results: article PMC2640967

B1: PalB-(1–130) prey (two-hybrid fusion) (domain or fragment)
chain: MSRTSSAPSQKSLISRALKAERDVITASSQSQALDAAIDAAEHYMKALALTSSSKDRNVLDAKCKEWLTRAEKIKGSEDWRSVAQSRRSRLRTPASTRKLTTREDIILLQGAKLNGFIFPPWKAEPSLTE

Target: Vps24 (full-length, two-hybrid fusion) (A. nidulans)
Assay: two-hybrid

Row | Molecule | fold lower β-galactosidase activity than with DidB^Did2 | fold β-galactosidase activity with Vps24 over that with DidB
1 | Vps4 (two-hybrid fusion) (enzyme) | 30 fold | –
2 | B1 | – | 10 fold
